# Laboratory results taken from PMC5994540.
# Assay: surface/total immunofluorescence, COS-7, with GluN1-4a
# Conditions: glycan lost; control: wild-type GluN1/GluN3A
row,Protein,localisation_or_trafficking
1,GluN3A subunit: N275Q (protein) parent chain: MRRLSLWWLLSRVCLLLPPPCALVLAGVPSSSSHPQPCQILKRIGHAVRVGAVHLQPWTTAPRAASRAQEGGRAGAQRDDPESGTWRPPAPSQGARWLGSALHGRGPPGSRKLGEGAGAETLWPRDALLFAVENLNRVEGLLPYNLSLEVVMAIEAGLGDLPLMPFSSPSSPWSSDPFSFLQSVCHTVVVQGVSALLAFPQSQGEMMELDLVSSVLHIPVLSIVRHEFPRESQNPLHLQLSLENSLSSDADVTVSILTMNNWYNFSLLLCQEDWNITDFLLLTENNSKFHLESVINITANLSSTKDLLSFLQVQMDNIRNSTPTMVMFGCDMDSIRQIFEMSTQFGLSPPELHWVLGDSQNVEELRTEGLPLGLIAHGKTTQSVFEYYVQDAMELVARAVATATMIQPELALLPSTMNCMDVKTTNLTSGQYLSRFLANTTFRGLSGSIKVKGSTIISSENNFFIWNLQHDPMGKPMWTRLGSWQGGRIVMDSGIWPEQAQRHKTHFQHPNKLHLRVVTLIEHPFVFTREVDDEGLCPAGQLCLDPMTNDSSMLDRLFSSLHSSNDTVPIKFKKCCYGYCIDLLEQLAEDMNFDFDLYIVGDGKYGAWKNGHWTGLVGDLLSGTANMAVTSFSINTARSQVIDFTSPFFSTSLGILVRTRDTAAPIGAFMWPLHWTMWLGIFVALHITAIFLTLYEWKSPFGMTPKGRNRNKVFSFSSALNVCYALLFGRTAAIKPPKCWTGRFLMNLWAIFCMFCLSTYTANLAAVMVGEKIYEELSGIHDPKLHHPSQGFRFGTVRESSAEDYVRQSFPEMHEYMRRYNVPATPDGVQYLKNDPEKLDAFIMDKALLDYEVSIDADCKLLTVGKPFAIEGYGIGLPPNSPLTSNISELISQYKSHGFMDVLHDKWYKVVPCGKRSFAVTETLQMGIKHFSGLFVLLCIGFGLSILTTIGEHIVHRLLLPRIKNKSKLQYWLHTSQRFHRALNTSFVEEKQPRSKTKRVEKSRWRRWTCKTEGDSELSLFPRSNLGPQQLMVWNTSNLSHDNQRKYIFNDEEGQNQLGTQAHQDIPLPQRRRELPASLTTNGKADSLNVTRSSVIQELSELEKQIQVIRQELQLAVSRKTELEEYQKTNRTCES,no change
2,GluN3A subunit: N285Q (protein) parent chain: MRRLSLWWLLSRVCLLLPPPCALVLAGVPSSSSHPQPCQILKRIGHAVRVGAVHLQPWTTAPRAASRAQEGGRAGAQRDDPESGTWRPPAPSQGARWLGSALHGRGPPGSRKLGEGAGAETLWPRDALLFAVENLNRVEGLLPYNLSLEVVMAIEAGLGDLPLMPFSSPSSPWSSDPFSFLQSVCHTVVVQGVSALLAFPQSQGEMMELDLVSSVLHIPVLSIVRHEFPRESQNPLHLQLSLENSLSSDADVTVSILTMNNWYNFSLLLCQEDWNITDFLLLTENNSKFHLESVINITANLSSTKDLLSFLQVQMDNIRNSTPTMVMFGCDMDSIRQIFEMSTQFGLSPPELHWVLGDSQNVEELRTEGLPLGLIAHGKTTQSVFEYYVQDAMELVARAVATATMIQPELALLPSTMNCMDVKTTNLTSGQYLSRFLANTTFRGLSGSIKVKGSTIISSENNFFIWNLQHDPMGKPMWTRLGSWQGGRIVMDSGIWPEQAQRHKTHFQHPNKLHLRVVTLIEHPFVFTREVDDEGLCPAGQLCLDPMTNDSSMLDRLFSSLHSSNDTVPIKFKKCCYGYCIDLLEQLAEDMNFDFDLYIVGDGKYGAWKNGHWTGLVGDLLSGTANMAVTSFSINTARSQVIDFTSPFFSTSLGILVRTRDTAAPIGAFMWPLHWTMWLGIFVALHITAIFLTLYEWKSPFGMTPKGRNRNKVFSFSSALNVCYALLFGRTAAIKPPKCWTGRFLMNLWAIFCMFCLSTYTANLAAVMVGEKIYEELSGIHDPKLHHPSQGFRFGTVRESSAEDYVRQSFPEMHEYMRRYNVPATPDGVQYLKNDPEKLDAFIMDKALLDYEVSIDADCKLLTVGKPFAIEGYGIGLPPNSPLTSNISELISQYKSHGFMDVLHDKWYKVVPCGKRSFAVTETLQMGIKHFSGLFVLLCIGFGLSILTTIGEHIVHRLLLPRIKNKSKLQYWLHTSQRFHRALNTSFVEEKQPRSKTKRVEKSRWRRWTCKTEGDSELSLFPRSNLGPQQLMVWNTSNLSHDNQRKYIFNDEEGQNQLGTQAHQDIPLPQRRRELPASLTTNGKADSLNVTRSSVIQELSELEKQIQVIRQELQLAVSRKTELEEYQKTNRTCES,no change
